Results published in patent publication US20210122815A1 (AKESO BIOPHARMA, published 2021).

Biological target: IL-17A (24-155) protein (human, UniProt Q16552 24-155)
Test: indirect ELISA screening of hybridomas

Chain of IL-17A (24-155) protein (Q16552 24-155): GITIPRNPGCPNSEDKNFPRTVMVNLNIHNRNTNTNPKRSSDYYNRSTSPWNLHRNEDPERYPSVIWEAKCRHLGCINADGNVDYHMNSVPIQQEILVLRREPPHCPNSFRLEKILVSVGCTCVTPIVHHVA

Binder	binding result
monoclonal murine antibody 13E9 (antibody, V domains shown, Mouse hybridoma antibody purified on protein A; also called antibody secreted by hybridoma cell line LT006 (IL-17A-13E9)) VH: EVKLQESGPGLVKPSQSLSLTCTVTSYSFTSDYAWSWIRQFPGIKLEWMGYITYSGVTSYNPSLKSRISITRDTSKNQFFLQLNSVTTEDTATYYCARADYDSYYTMDYWGQGTSVTVSS VL: DIQLTQSPLSLPVSLGDQASISCRSSQSLVHSNGNTYLHWYLQKPGQSPRLLIYKVSNRFSGVPDRFSGSGSGTDFTLKISRVEAEDLGVYFCSQSTHFWTFGGGTKLEIK	binds
monoclonal murine antibody 2G2 (antibody, V domains shown, Mouse hybridoma antibody purified on protein A; also called antibody secreted by hybridoma cell line LT007 (IL-17A-2G2)) VH: EVQLEQSGSELRSPGSSVKLSCKDFDSEVFPIADMSWVRQKPGHGFEWIGDILPSFGRTIYGEKFEDKAKVDADTVSNTAYLELNSLTSEDSAIYYCARGNYGFAYWGQGTLVTVSA VL: not shown	binds
